Our source for the Kd values is article PMC10469194 (Scientific Reports, 2023).

This assay deals with T1, mutated-truncated DsbC (mtDsbC) tagged SARS-CoV-2 Receptor Binding Domain (RBD) (Severe acute respiratory syndrome …, UniProt P0DTC2, biotin (biotinylated, site not stated)).
T1 construct: also called mtDsbC-SARS-CoV-2 wild type; SARS-CoV-2 RBD
Description: BLI; biotinylated antigen (5 µg/mL) immobilised on Streptavidin biosensors; five concentrations of Fab or FabH3 (3-243 nM); Octet RED384, 30 °C, 1000 rpm, 1X PBS Kinetics Buffer; global fit, 1:1 interaction model. To be noted: both partners purified.

B1: REGN10987-based FabH3 (GS-G4 linker) (other)
VH: QVQLVESGGGVVQPGRSLRLSCAASGFTFSNYAMYWVRQAPGKGLEWVAVISYDGSNKYYADSVKGRFTISRDNSKNTLYLQMNSLRTEDTAVYYCASGSDYGDYLLVYWGQGTLVTVSS
VL: QSALTQPASVSGSPGQSITISCTGTSSDVGGYNYVSWYQQHPGKAPKLMIYDVSKRPSGVSNRFSGSKSGNTASLTISGLQSEDEADYYCNSLTSISTWVFGGGTKLTVL
notes: VH domain of REGN10987, as the VH of the heavy chain of m1; flexible glycine-serine linker, printed only as the formula 'GS-G4' (G: glycine, S: serine); spelled out from that formula; IgG1 heavy chain constant 3 (CH3) domain; VL domain of REGN10987, as the VL of the light chain of m1; E356 is 239 and D399 is 282 in P01857; also called REGN10987 FabH3; FabH3 format; copies: 1 + 1
Consider B1, for which the Kd (commonly the concentration at which binding is half-saturated) was 20 ± 2.6 nM.

B2: REGN10987 wild type Fab (Fab, V domains shown)
VH: QVQLVESGGGVVQPGRSLRLSCAASGFTFSNYAMYWVRQAPGKGLEWVAVISYDGSNKYYADSVKGRFTISRDNSKNTLYLQMNSLRTEDTAVYYCASGSDYGDYLLVYWGQGTLVTVSS
VL: QSALTQPASVSGSPGQSITISCTGTSSDVGGYNYVSWYQQHPGKAPKLMIYDVSKRPSGVSNRFSGSKSGNTASLTISGLQSEDEADYYCNSLTSISTWVFGGGTKLTVL
notes: Fab heavy chain (VH-CH1) of REGN10987; Fab light chain (VL-CL, lambda) of REGN10987; Heavy and light chain are covalently linked (one mass of 47,892 Da by ESI-MS); also called REGN10987 Fab; REGN10987-Fab
Consider B2, for which the Kd turned out to be 43 ± 4.4 nM.
